Reference: patent EP4591887A1, “GPC3 ANTIBODY-DRUG CONJUGATE AND USE THEREOF” (priority 2022, dated 2024)

B1: GC33-L1-D1 (antibody, V domains shown)
VH: QVQLVQSGAEVKKPGASVKVSCKASGYTFTDYEMHWVRQAPGQGLEWMGALDPKTGDTAYSQKFKGRVTLTADKSTSTAYMELSSLTSEDTAVYYCTRFYSYTYWGQGTLVTVSS
VL: DVVMTQSPLSLPVTPGEPASISCRSSQSLVHSNGNTYLHWYLQKPGQSPQLLIYKVSNRFSGVPDRFSGSGSGTDFTLKISRVEAEDVGVYYCSQNTHVPPTFGQGTKLEIK
modifications: MC-vc-PAB-MMAE (L1-D1) on cysteine thiols of the antibody freed by TCEP reduction of disulfide bonds; positions not given
B2: Hu 52H5D3B8-8 (antibody, human IgG1, kappa, V domains shown)
VH: EVQLVQSGAEVKKPGASVKVSCKASGYTFTDYEMHWVRQAPGQGLEWMGAIHPGSGGTAYNQKFKGRVTMTADKSISTAYMELSRLRSDDTAVYYCTRFYSYAYWGQGTLVTVSS
VL: DVVMTQTPLSLSVTPGQPASISCRSSQSLVHSNGNTYLQWYLQKPGQSPQLLIYKVSNRFSGVPDRFSGSGSGTDFTLKISRVEAEDVGVYFCSQSIHVPYTFGGGTKVEIKR
notes: also called humanized GPC3 antibody Hu 52H5D3B8-8

Experiments:
[1] = tested on: PDX model LIV#219 of nude mice with human liver cancer; assay: Antitumor activity in LIV#219 liver cancer PDX model; type: in vivo, BALB/c nude mice; details: 3 mg/kg, Day 26
Method: The antitumor activity of GPC3-ADCs was tested in an LIV#219 liver cancer PDX model. The model has a higher expression level of GPC3 RNA, and a positive expression of GPC3 as confirmed by FACS analysis.
The process of the establishment of a PDX model of nude mice with human liver cancer was as follows: A tumor tissue with a volume size of about 15-30 mm^3 was transplanted subcutaneously under the back of the BALB/c nude mice. When the tumor volume reached 250-360 mm^3, the mice were divided into a total of 4 groups by a randomized block method, with 6 mice per group, ensuring uniformity in tumor volume and balance in body weight between these groups. The groups included a vehicle group, a 3 mg/kg GC33-L1-D1 administration group, a 3 mg/kg Hu 52H5D3B8-7-L1-D1 administration group, and a 3 mg/kg Hu 52H5D3B8-8-L1-D1 administration group.
Data analysis: During the experiment, the tumor volume was measured twice a week. The calculation formula for the tumor volume (TV) is: TV = l × w^2 / 2, in which l and w represent the measured length and width of the tumor, respectively. According to the measurement results, the relative tumor volume (RTV) was calculated by RTV = Vf / V0, in which V0 is the tumor volume measured at the time of grouping for administration (i.e., Day 0), and Vf is the tumor volume measured on the last day. […]

[2] = target: T1, human GPC3 (Glypican-3) (human, UniProt P51654 25-580); assay: cell-based or functional assay
[3] = target: T1, human GPC3 (Glypican-3); assay: cell-based or functional assay; remark: listed apart in the source
[4] = target: T1, human GPC3 (Glypican-3); assay: cell-based or functional assay; remark: listed apart in the source
[5] = target: T1, human GPC3 (Glypican-3); assay: FACS on CHO-K1 cells overexpressing human GPC3 (GPC3-CHO-K1)
[6] = target: T1, human GPC3 (Glypican-3); assay: FACS on HepG2 cells
[7] = target: T1, human GPC3 (Glypican-3); assay: FACS on HepG2 cells, top of the fitted fluorescence curve
[8] = target: T1, human GPC3 (Glypican-3); assay: FACS on HepG2 cells; remark: listed apart in the source
[9] = target: T1, human GPC3 (Glypican-3); assay: FACS on Huh-7 cells

Row | Molecule | relative tumor proliferation rate (T/C) (%) [1] | tumor growth inhibition rate (TGI %) [1] | EC50 value of cytotoxicity, HepG2 cells (96 h, PrestoBlue) [2] | EC50 value of cytotoxicity, Huh7 cells (96 h, PrestoBlue) [2] | Percentage reduction of GPC3 on cell surface (%), Huh7 cells, 2 h at 37°C against ice, FACS [3] | internalization on HepG2 cells (pHAb dye-labelled anti-hIgG secondary antibody, 48 h): EC50 [4] | internalization on HepG2 cells (pHAb dye-labelled anti-hIgG secondary antibody, 48 h): Top [4] | EC50 [5] | EC50 [6] | Top [7] | EC50 [8] | EC50 [9]
1 | B1 | 54.90% | 45.10% | 0.0732 µg/mL | 0.0786 µg/mL | 63.1% |  |  |  |  |  |  | 
2 | B2 |  |  |  |  | 65.3% | 0.78 µg/mL | 62400 | 0.411 nM | 0.0743 µg/mL | 75000 | 0.351 nM | 0.418 nM
